Experimental findings from IntAct's records for PubMed 21979047 are described below.

The chains are these.
B1: Complement factor H (Homo sapiens), P08603 (parent)
chain: MRLLAKIICLMLWAICVAEDCNELPPRRNTEILTGSWSDQTYPEGTQAIYKCRPGYRSLGNVIMVCRKGEWVALNPLRKCQKRPCGHPGDTPFGTFTLTGGNVFEYGVKAVYTCNEGYQLLGEINYRECDTDGWTNDIPICEVVKCLPVTAPENGKIVSSAMEPDREYHFGQAVRFVCNSGYKIEGDEEMHCSDDGFWSKEKPKCVEISCKSPDVINGSPISQKIIYKENERFQYKCNMGYEYSERGDAVCTESGWRPLPSCEEKSCDNPYIPNGDYSPLRIKHRTGDEITYQCRNGFYPATRGNTAKCTSTGWIPAPRCTLKPCDYPDIKHGGLYHENMRRPYFPVAVGKYYSYYCDEHFETPSGSYWDHIHCTQDGWSPAVPCLRKCYFPYLENGYNQNYGRKFVQGKSIDVACHPGYALPKAQTTVTCMENGWSPTPRCIRVKTCSKSSIDIENGFISESQYTYALKEKAKYQCKLGYVTADGETSGSITCGKDGWSAQPTCIKSCDIPVFMNARTKNDFTWFKLNDTLDYECHDGYESNTGSTTGSIVCGYNGWSDLPICYERECELPKIDVHLVPDRKKDQYKVGEVLKFSCKPGFTIVGPNSVQCYHFGLSPDLPICKEQVQSCGPPPELLNGNVKEKTKEEYGHSEVVEYYCNPRFLMKGPNKIQCVDGEWTTLPVCIVEESTCGDIPELEHGWAQLSSPPYYYGDSVEFNCSESFTMIGHRSITCIHGVWTQLPQCVAIDKLKKCKSSNLIILEEHLKNKKEFDHNSNIRYRCRGKEGWIHTVCINGRWDPEVNCSMAQIQLCPPPPQIPNSHNMTTTLNYRDGEKVSVLCQENYLIQEGEEITCKDGRWQSIPLCVEKIPCSQPPQIEHGTINSSRSSQESYAHGTKLSYTCEGGFRISEENETTCYMGKWSSPPQCEGLPCKSPPEISHGVVAHMSDSYQYGEEVTYKCFEGFGIDGPAIAKCLGEKWSHPPSCIKTDCLSLPSFENAIPMGEKKDVYKAGEQVTYTCATYYKMDGASNVTCINSRWTGRPTCRDTSCVNPPTVQNAYIVSRQMSKYPSGERVRYQCRSPYEMFGDEEVMCLNGNWTEPPQCKDSTGKCGPPPPIDNGDITSFPLSVYAPASSVEYQCQNLYQLEGNKRITCRNGQWSEPPKCLHPCVISREIMENYNIALRWTAKQKLYSRTGESVEFVCKRGYRLSSRSHTLRTTCWDGKLEYPTCAKR

The assay covers variants of B1. The note with it: with albu_bovin ALB.
As for Y402H, the “effect of a mutation on the interaction” value was “decreasing interaction strength”.
